Experimental data reported in PMC9573744, “Structural Insight of KSIII (β-Ketoacyl-ACP Synthase)-like Acyltransferase ChlB3 in the Biosynthesis of Chlorothricin” (Molecules, 2022).

Molecular target: the molecule itself
Assay: crystal structure; sitting drop vapor diffusion, 0.1 M HEPS pH 7.0, 1.4 M sodium acetate-trihydrate, 20 °C; space group P212121, four dimers per asymmetric unit; 3.1 Å

B1: ChlB3 (enzyme, Streptomyces antibioticus DSM 40725)
chain: MRTPDIFIKATGRFLPETVSVEWAVEQGHYSAEDAELHELGGAAVAGDTPAPDMALWAAQQAVKRCGHRPEDLGLLLYVDSWHQGPDGWQPQYYLQRHLVGGDVLAVEIQQGCNGMFSALELAAAHLRAGPRPGSALVVAADNFGTPLFDRWTTGPGYIAGDGAGAVVLTTEPGFARLLAVRSLAVPEAEQMHRGAEPLFPPGATIGRPLNFTSRNAAFRELSLTEGLGTGALMRVHQRTLEVVEKTLSEAGITLGDITRVAYMNFSREIVEQRCMAALGLPMSASTWEFGRKLGHLGASDQVVALDELVTTGELGPGDHLLMLGMGPGVTLSCAVVKVLTPAPWSD
notes: ChlB3 acyltransferase of Streptomyces antibioticus DSM 40725, amplified from genomic DNA; chlB3 of 1044 bp cloned into pET28a (NheI/HindIII); also called KSIII (β-ketoacyl-ACP synthase)-like acyltransferase ChlB3; source: E. coli BL21 (DE3), purified (Nickel-NTA, Superdex-200 gel filtration)
stoichiometry N: 2
